Data on one substance can be found in article PMC9367475.

Experiment [1] addresses human DC-SIGN expressed on HEK 293T cells (DC-HEK) (human) (UniProt Q9NNX6).
In experiment [2] the target is DC-SIGN on THP-1 cells induced with PMA and IL-4 (DC-THP-1) (human (endogenous in THP-1)) (UniProt Q9NNX6).

On to “recombinant SARS-CoV-2 spike protein (from UniProt P0DTC2 14-1273) (natural protein)”, for which, in experiment [1], the IFN-α mRNA (RT-qPCR, 6 h) in DC-HEK cells challenged with Spike protein pre-incubated with rfhSP-D 20 µg/ml, against Spike protein without rfhSP-D was -2.1; the NF-κB mRNA (RT-qPCR, 6 h) in DC-HEK cells challenged with Spike protein pre-incubated with rfhSP-D 20 µg/ml, against Spike protein without rfhSP-D was -1.2; the RANTES mRNA (RT-qPCR, 6 h) in DC-HEK cells challenged with Spike protein pre-incubated with rfhSP-D 20 µg/ml, against Spike protein without rfhSP-D was -1.3; the TNF-α mRNA (RT-qPCR, 6 h) in DC-HEK cells challenged with Spike protein pre-incubated with rfhSP-D 20 µg/ml, against Spike protein without rfhSP-D was -3.3. Moreover, in experiment [2], the IL-1β mRNA (RT-qPCR, 6 h and 12 h: ~ -2.5 to ~ -4 log10) in DC-THP-1 cells challenged with Spike protein pre-incubated with rfhSP-D 20 µg/ml, against Spike protein without rfhSP-D is -4; the IL-6 mRNA (RT-qPCR, 12 h) in DC-THP-1 cells challenged with Spike protein pre-incubated with rfhSP-D 20 µg/ml, against Spike protein without rfhSP-D was -5; the IL-8 mRNA (RT-qPCR, 6 h and 12 h: ~ -2.3 to ~ -4.8 log10) in DC-THP-1 cells challenged with Spike protein pre-incubated with rfhSP-D 20 µg/ml, against Spike protein without rfhSP-D is -4.8; the MHC class II mRNA (RT-qPCR, 6 h and 12 h: - 2 to - 2.7 log10) in DC-THP-1 cells challenged with Spike protein pre-incubated with rfhSP-D 20 µg/ml, against Spike protein without rfhSP-D was -2.7. Besides, in experiment [2], the NF-κB mRNA (RT-qPCR, 6 h and 12 h: ~ -1 to ~ -4 log10) in DC-THP-1 cells challenged with Spike protein pre-incubated with rfhSP-D 20 µg/ml, against Spike protein without rfhSP-D is -4; the TNF-α mRNA (RT-qPCR, 6 h and 12 h: ~ -3.1 to ~ -6.8 log10) in DC-THP-1 cells challenged with Spike protein pre-incubated with rfhSP-D 20 µg/ml, against Spike protein without rfhSP-D is -6.8.
